Test results: patent US20050064507

Experiments:
[1] = test system: T1, MLK3 peptide HVRRRRGTFKRSKLRARD (SEQ ID NO:76)
T1 sequence: HVRRRRGTFKRSKLRARD

[2] = test system: T2, CREB1 peptide EILSRRPSYRKILND (SEQ ID NO:106)
T2 sequence: EILSRRPSYRKILND

[3] = test system: T3, SPTBN4 peptide EGGDRRASGRRK (SEQ ID NO:110)
T3 sequence: EGGDRRASGRRK

[4] = test system: T4, ARHGAP4 peptide AGPLRKSSLKKGGRL (SEQ ID NO:98)
T4 sequence: AGPLRKSSLKKGGRL

[5] = test system: T5, PSCD2 peptide AARKKRISVKKKQEQ (SEQ ID NO:93)
T5 sequence: AARKKRISVKKKQEQ

[6] = test system: T6, PARIS1 peptide EYLERRASRRRAV (SEQ ID NO:89)
T6 sequence: EYLERRASRRRAV

[7] = test system: T7, MAP3K14 peptide WKGKRRSKARKKRK (SEQ ID NO:100)
T7 sequence: WKGKRRSKARKKRK

[8] = test system: T8, AKAP12 peptide AGWRKKTSFRKPKED (SEQ ID NO:99)
T8 sequence: AGWRKKTSFRKPKED

[9] = test system: T9, PRKCA peptide RFARKGSLRQKNV (SEQ ID NO:85)
T9 sequence: RFARKGSLRQKNV

[10] = test system: T10, MACMARCKS peptide KKPFKLSGLSFKRNRKE (SEQ ID NO:88)
T10 sequence: KKPFKLSGLSFKRNRKE

[11] = test system: T11, NEURL peptide ALRRPSLRREADD (SEQ ID NO:105)
T11 sequence: ALRRPSLRREADD

[12] = test system: T12, ERN1 peptide KLAVGRHSFSRRSGV (SEQ ID NO:94)
T12 sequence: KLAVGRHSFSRRSGV

[13] = test system: T13, PLEK peptide KFARKSTRRSIRLPE (SEQ ID NO:78)
T13 sequence: KFARKSTRRSIRLPE

[14] = test system: T14, LIMK2 peptide KATTKKRTLRKNDRK (SEQ ID NO:108)
T14 sequence: KATTKKRTLRKNDRK

[15] = test system: T15, NCF1 peptide GAPPRRSSIRNAH (SEQ ID NO:101)
T15 sequence: GAPPRRSSIRNAH

[16] = test system: T16, MARCKS peptide KKKRFSFKKSFKLSGFSFKK (SEQ ID NO:111)
T16 sequence: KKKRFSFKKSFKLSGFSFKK

[17] = test system: T17, GABRB2 peptide QKKSRLRRRASQLKI (SEQ ID NO:84)
T17 sequence: QKKSRLRRRASQLKI

[18] = test system: T18, ASIP peptide KKRSSKKEASMKKVVRP (SEQ ID NO:97)
T18 sequence: KKRSSKKEASMKKVVRP

[19] = test system: T19, SDPR peptide EKIKRSSLKKVDSLKK (SEQ ID NO:104)
T19 sequence: EKIKRSSLKKVDSLKK

[20] = test system: T20, CACNA1C peptide RGFLRSASLGRRASFHLE (SEQ ID NO:96)
T20 sequence: RGFLRSASLGRRASFHLE

[21] = test system: T21, ANK1 peptide AQIVKRASLKRGKQ (SEQ ID NO:90)
T21 sequence: AQIVKRASLKRGKQ

[22] = test system: T22, MARCKS peptide KKKKKRFSFKKSFKL (SEQ ID NO:80)
T22 sequence: KKKKKRFSFKKSFKL

[23] = test system: T23, SYTL4 peptide RQGKRKTSIKRDTVNPL (SEQ ID NO:87)
T23 sequence: RQGKRKTSIKRDTVNPL

[24] = test system: T24, MYBPC3 peptide LLKKRDSFRTPRDSKLE (SEQ ID NO:103)
T24 sequence: LLKKRDSFRTPRDSKLE

[25] = test system: T25, KCNH2 peptide RQRKRKLSFRRRTDKD (SEQ ID NO:86)
T25 sequence: RQRKRKLSFRRRTDKD

[26] = test system: T26, FLJ20574 peptide GENVLKKSMKSRVKG (SEQ ID NO:113)
T26 sequence: GENVLKKSMKSRVKG

[27] = test system: T27, NR4A3 peptide KEVVRTDSLKGRRGR (SEQ ID NO:109)
T27 sequence: KEVVRTDSLKGRRGR

[28] = test system: T28, EBNA1BP2 peptide KRPGKKGSNKRPGKR (SEQ ID NO:112)
T28 sequence: KRPGKKGSNKRPGKR

[29] = test system: T29, NF1 peptide AGSFKRNSIKKIV (SEQ ID NO:102)
T29 sequence: AGSFKRNSIKKIV

[30] = test system: T30, PLEC1 peptide KRERKTSSKSSVRKRR (SEQ ID NO:81)
T30 sequence: KRERKTSSKSSVRKRR

[31] = test system: T31, PPP1R14A peptide QKRHARVTVKYDRRE (SEQ ID NO:107)
T31 sequence: QKRHARVTVKYDRRE

[32] = test system: T32, ARHGAP6 peptide DGQKRKKSLRKKLD (SEQ ID NO:92)
T32 sequence: DGQKRKKSLRKKLD

[33] = test system: T33, DGKZ peptide KKKKRASFKRKSSKKG (SEQ ID NO:77)
T33 sequence: KKKKRASFKRKSSKKG

[34] = test system: T34, ADD2 peptide KKKFRTPSFLKKSKK (SEQ ID NO:95)
T34 sequence: KKKFRTPSFLKKSKK

[35] = test system: T35, CHRM1 peptide RKIPKRPGSVHRTPSRQ (SEQ ID NO:83)
T35 sequence: RKIPKRPGSVHRTPSRQ

[36] = test system: T36, p164-RhoGEF peptide PRLIRRGSKKRPAR (SEQ ID NO:82)
T36 sequence: PRLIRRGSKKRPAR

[37] = test system: T37, DGKI peptide NRKKKRTSFKRKA (SEQ ID NO:79)
T37 sequence: NRKKKRTSFKRKA

[38] = test system: T38, PRKCM peptide VHYTSKDTLRKRHYWR (SEQ ID NO:91)
T38 sequence: VHYTSKDTLRKRHYWR

| Substance | in vitro phosphorylation (% of best substrate) [1] | in vitro phosphorylation (% of best substrate) [2] | in vitro phosphorylation (% of best substrate) [3] | in vitro phosphorylation (% of best substrate) [4] | in vitro phosphorylation (% of best substrate) [5] | in vitro phosphorylation (% of best substrate) [6] | in vitro phosphorylation (% of best substrate) [7] | in vitro phosphorylation (% of best substrate) [8] | in vitro phosphorylation (% of best substrate) [9] | in vitro phosphorylation (% of best substrate) [10] | in vitro phosphorylation (% of best substrate) [11] | in vitro phosphorylation (% of best substrate) [12] | in vitro phosphorylation (% of best substrate) [13] | in vitro phosphorylation (% of best substrate) [14] | in vitro phosphorylation (% of best substrate) [15] | in vitro phosphorylation (% of best substrate) [16] | in vitro phosphorylation (% of best substrate) [17] | in vitro phosphorylation (% of best substrate) [18] | in vitro phosphorylation (% of best substrate) [19] | in vitro phosphorylation (% of best substrate) [20] | further results |
| --- | --- | --- | --- | --- | --- | --- | --- | --- | --- | --- | --- | --- | --- | --- | --- | --- | --- | --- | --- | --- | --- |
| AKT1 | 100 | 12 | 1 | 7 | 7 | 1 | 3 | 6 | 10 | 10 | 12 | 9 | 2 | 1 | 12 | 3 | 10 | 10 | 2 | 32 | in vitro phosphorylation (% of best substrate) [21]: 3; in vitro phosphorylation (% of best substrate) [22]: 6; in vitro phosphorylation (% of best substrate) [23]: 7; in vitro phosphorylation (% of best substrate) [24]: 7; in vitro phosphorylation (% of best substrate) [25]: 39; in vitro phosphorylation (% of best substrate) [26]: 9; in vitro phosphorylation (% of best substrate) [27]: 2; in vitro phosphorylation (% of best substrate) [28]: 3; in vitro phosphorylation (% of best substrate) [29]: 6; in vitro phosphorylation (% of best substrate) [30]: 9; in vitro phosphorylation (% of best substrate) [31]: 3; in vitro phosphorylation (% of best substrate) [32]: 2; in vitro phosphorylation (% of best substrate) [33]: 8; in vitro phosphorylation (% of best substrate) [34]: 9; in vitro phosphorylation (% of best substrate) [35]: 6; in vitro phosphorylation (% of best substrate) [36]: 9; in vitro phosphorylation (% of best substrate) [37]: 7; in vitro phosphorylation (% of best substrate) [38]: 5 |
| PKA | 69 | 30 | 1 | 21 | 1 | 4 | 2 | 1 | 81 | 3 | 84 | 5 | 5 | 0 | 100 | 3 | 63 | 1 | 1 | 86 | in vitro phosphorylation (% of best substrate) [21]: 3; in vitro phosphorylation (% of best substrate) [22]: 3; in vitro phosphorylation (% of best substrate) [23]: 64; in vitro phosphorylation (% of best substrate) [24]: 3; in vitro phosphorylation (% of best substrate) [25]: 87; in vitro phosphorylation (% of best substrate) [26]: 0; in vitro phosphorylation (% of best substrate) [27]: 1; in vitro phosphorylation (% of best substrate) [28]: 0; in vitro phosphorylation (% of best substrate) [29]: 5; in vitro phosphorylation (% of best substrate) [30]: 2; in vitro phosphorylation (% of best substrate) [31]: 2; in vitro phosphorylation (% of best substrate) [32]: 18; in vitro phosphorylation (% of best substrate) [33]: 4; in vitro phosphorylation (% of best substrate) [34]: 2; in vitro phosphorylation (% of best substrate) [35]: 2; in vitro phosphorylation (% of best substrate) [36]: 10; in vitro phosphorylation (% of best substrate) [37]: 3; in vitro phosphorylation (% of best substrate) [38]: 3 |
